test: yeast display, Sf9 membrane polyspecificity reagent, FACS + sequencing; frameworks hold sequencing errors
Summary of the method: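 Using colony PCR, genes from sorted yeast display clones were amplified, then sequenced on MiSeq at 2 × 250 and filtered by CDR length. The clones had been stained with 10% biotinylated, detergent-solubilized Sf9 membrane reagent for 1 hour at 4 °C and sorted by FACS into low and high (top ~1%) gates on anti-HA and streptavidin fluorescence. Polyreactivity labels come from the gate of origin.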

Sequence | polyreactivity (PSR sort gate)
QVQLVVSGGGLVQAGGSLRLSCAASGRIFYTYAMGWYIQAPGKERELVATITDGGSTYYADSVKVRFTISRDNAMNNVYLQMNILKPEDTAVYYCAADAYQWYDWGQGTHVTVSS | low polyreactivity
QVQLVVSGGGLVQAGGSLRLSCAASGSIFRFYTMGWYRQAPGKERELVAAISASGGNTYYADSVKGRFTISRDNAKNTVYLQMNSLKPEDTAVYYCARVKFTKYDYWGQGTQVTVSS | high polyreactivity
QVQLVVSGGGLVQAGGSLRLSCAASGSIFTRYAMGWYRQAPGKERELVAAISSGGSTYYADSVKGRFTISRDNAKNTVYLQMNSLKPEDTAVYYCAKDSGSYRVGIYEPFPYGYWGQGTQVTVSS | low polyreactivity
QVQLVYSGGGLVKAGGTLRLSCAASGSTFTPNAMGWYRQAPGKERELVAAINWSDSSTYYADSVKGRFTISRDNAKNTVYLQMNSLIPEDTAVYYCAAAAQYGQLQVPVYYWGEGTQVTVSS | low polyreactivity
QVQLVYSGGGLVQAGGSLRLSCAASGRTSWIKAMGWYRTAPGKERQLVAAIRYSGRTYYADSVKGRFTISRDNAKNTVYLQMNSLKPEDYGVYYCAAVVGGYETGRYYYWGQGTQVTVSS | high polyreactivity
QVQMQESSGGLVHAGGSLRKSCAASGTIYHFHIMGWYRQAPGKEREFVAAIRYGTSTYYADSVKGLFTISRDNEKNTVYVKMNSQKPEDTAVYYCAVYDYLEVYCWYWGQGTQVTVSS | low polyreactivity
QVQNVDSGGVLVQAGGSLRLSCEASGRIRYYAMGWYRQAPGKERELVAAISSRGGSTYYADSVKGRFTISRDNAKNTVYLLLNSLKPEDTAVYYCAKGGYWGHGTQVTVSS | high polyreactivity
QVQPVESGGGLVQAGGSLRLSCAASGSTLGHNAMGWYRQAPGKERELVAAITSSGGRTYYADSVKGRFTISRDNAKNTVYLQMNSLKPEDTAVYYCAADDTDYPEYDYWGQGTQVTVSS | high polyreactivity
QVQPVESVGGLVQAGGSLRLSGAASGSIFAVYAMRWYRQPPGNERELVARITRGGGSTYYADSVKGRVTISRDNAKNTVYLQMNSLKPEDTAVYYCAAARRSQYRTWMNYWGQGTQVTVSS | high polyreactivity
QVQQPESGGGLVQAGGSLRLSCAASGTIFQLTVMGRSRQAPGKERELVASIDYGGNPNYADSVKGRFTISRDNAKNTVYLQMNCLKPEDTAVYYCAASSDSWTTHPYWGQGTQVTVSS | low polyreactivity
QVQQQESGGGLVKAGGSLRLSCAASGNNSPRDAMGWYRQAPGEERDLVASNAYSAITYYADGVKGRYTISRDNAKNTVYLQMNSLKPEDTEVYYCAVYQFTYPVFPAYWGQGTQVTVSS | low polyreactivity
QVQQQESGGGLVQAGGSLRLSCAASGTIFQLTVMGRYRQAPGNERELVASIDYGGNTNYADSVKGRFTISRDNAKNTVYLQMNILKPEDTAVYYCPASSDSWTTHPYWGQGTQVTLSS | low polyreactivity
QVQQQESGGGLVQAGGSLRLSCAASGTIFQLTVMGRYRQAPGQERELVASIDYGGNTNYADSVNGRFTISRDNAKNTVYLQMNSLKPEDTAVYYCAASSDSWTTHPYWGQGTQVTVSS | low polyreactivity
QVQQQESGGGLVQAGGSQRLSCAASGTSLNSLCMGWYRQAPGKRREFVASITWGTTTNYAESVKGRFTISRDNANNTVYPQMNSLKPEDTAVYYCAAPPFGDSSYHYWGQGTQVTVSS | low polyreactivity
QVQQQESGGGLVQEGGSLRLSCAASGNISPPADMGWYRQAPGKERELVASIGTGGTTNYADSVKGRFTISRDNAKNTVYLQMNSLKPDDTAVFYCAAVRYEYNPYDYWGQGTQVTVSS | low polyreactivity
QVQREESGGGLVQAGGSLRLSCAASGFIFDNNAMGWYRQAPGKERELVAAISSADSTNYADSEKGRFSISRDNAKNTVYLQMNSLKPEDTAVYSCNRSQGGEKGWFHYDSWGQGTQVTVSS | low polyreactivity
QVQREESGGGLVQAGGSLRLSCAASGITFVLNVMGWYRQAPGKETELLAAISASGGRTYYADSVKGRFTISRDNAKNTVYLQMNSLKPEDTAVYYCNAVLPRYTFRSGVFEYDWGQGTQVTVSS | high polyreactivity
QVQREESGGGLVQAGGSLRLSCAASGRIMNINAMGWYRPATGKERERVAAITWRGGRTFYADSVKGRFTISRDNAKNTVYLQMNSLKAEDTAVYYCAASSNSWYPTGYYWGQGTQVTVSS | high polyreactivity
QVQREESGGGLVQAGGSLRLSCAASGSIFVGNAMGWYRQAPGKESELVAAITASGTSTYYADSVKGRFTISRDNAKNTVYLQMNSLKPEDTAVYYCNAVQLVYDQYRYDYWGQGTQVTVSS | high polyreactivity
QVQRVDSGGGLVQAGGRLRLSCAASGLNFYLYAMGLYRQAPRKEREFVAAITTSGGSTHYADSVKGRFTISRDNAKNTVYLQMNSLKPEDTAVYYCAADDYFHGPGMEFDFLGQGTQVTVSS | low polyreactivity
QVQRVDSGGGLVQAGGSLRLSCAASGITFTLYDMGWYRQAPGKERELVASITSDGSTDYADSVKGRFTISRDNAKNTVYLQMISLKPEDTAVYYCNARVTYSWYRFGRSGDDSWGQGTQVTVSS | low polyreactivity

Sequence | polyreactivity (PSR sort gate)
QVQRVDSGGGLVQAGGSLRLSCAASGRILRDYDRGWYRQAPGKDRELVAAINWSDGSTYYADSVKGRFTISRDNAKNTVYLQMNSLKPEDTAVYYCAASRWRPLERGTTWLHDYWGQGTQVTVSS | low polyreactivity
QVQRVDSGGGLVQAGGSLRLSCAASGSIFEWYDMVWYRQAPGTERELVAAITTGGITNYSDSVKARFTISRDNAKNTVYLQMNSLKPEDTAVYYCNADFTVEFDYWGQGTQVTVSS | low polyreactivity
QVQRVESGGGIVQAGGSLRLSCAASGFIFRRYAMGWYRQAPGKERELVAAISSSGGRTTYADSVKGRFTISRDNAKNTVYLQMNSLKPEDTAVYYFNADLWPGNHDGYWGQGTQVSVSS | low polyreactivity
QVQRVESGGGLVHAAGSRRLSCAASGSIFWPYAMGWYRLAPGKEREFVAPISSSGSRTHYADSVKGRFTISRDTAKNTVYLQMNSLKPEDTAVYYCATDSRVITWYGGVEFDYWGQGTQVTVSS | low polyreactivity
QVQRVESGGGLVQAGGRLRLICAAAGYTFDYYAMGWYRQAPGKERELVAAISRSGTRTYYADSVKGRFTISRDNAKNTVYLQMYSLKPEVNAVYYLKKAYYLYAGDYWGQGTQVTVSS | high polyreactivity
QVQRVESGGGLVQAGGRLRLSCAASGRTFETNAMGWYRQAPGKERELVAAISRSGGSTRYADSVKGRFTISRDNAKNTVYLQMNSLKPEDTAVYYCAVRVGLGGGYGGQGTQVTVSS | high polyreactivity
QVQRVESGGGLVQAGGRLRLSCAASGSIFASYDMGWYRQSRGKERELVARITFNAGSTYYADSVKGRFTISRDNAKNTVYLQMNSLKPEDTAVYYCIADYPWEYDYWGEGTQVTVSS | low polyreactivity
QVQRVESGGGLVQAGGRLRLSCAASGSIFFSKAMGWYRPAPGKERELVAGIRSGGITNYADSVKGRFTISRDNAKNTVSLQMNSLKPEDTAVYYCAKLKDHGRYAYAFDYWGQGTQVTVSS | low polyreactivity
QVQRVESGGGLVQAGGRLRLSCAASGSTFLYNAMGWYRQAPGKERELVATISSGGGSTNYADSVKGRFTNSRDNAKNTVYLPMNSLKPEDTAVYYCAVEGYDSYKDDYWGQGTQVTVSS | low polyreactivity
QVQRVESGGGLVQAGGRLRLSSAASGSIFGRYGMGWYRQAPGKDRELVAAITSGTRRNYADSVKGRFTISRDNAKNTVYLQMNSLKPEDTAVYYCNAVRLRGNYEYGYWGLGTQVTVSS | low polyreactivity
QVQRVESGGGLVQAGGRLRVSCAASGRTFYIYAMGWYRQAPGKERELVADITSGGSTYYADSVKGRFTISRDNAKNTVYLQMNCLKPEDTAVYYCNAGPHWFYRYGRYDYWGQGTQVTVSS | low polyreactivity
QVQRVESGGGLVQAGGSLRLSCAASGFIFYFYAMRWYRQAPGNERELVAAITWSGTDTYYADSVKGRFTISRDNAKNTVYLQMNSLKPEDTAVYYCARSEHSLVSIKVDYWGQGTQVTVSS | low polyreactivity
QVQRVESGGGLVQAGGSLRLSCAASGFTFSLYGMGWYRPARGKGRELVAAIRSGGSTNYADSVKGRYTISRDNAKNTVYLQMNSLKPEDTAVYYCATDIHSGHNNRDKHDYDYWGQGTQETVSS | low polyreactivity
QVQRVESGGGLVQAGGSLRLSCAASGIIFALYAMGWYRQAPGKERELVAAISTSGGRTYYADSVKGRFTISRDNAKNTVYFQMNSLKPEDTAVYYCAAGYPYWYHSRLAFDYWGQGTQVTVSS | high polyreactivity
QVQRVESGGGLVQAGGSLRLSCAASGITFKYYGMGWYRRAPGKERELVAAITRSGGSTSYADSVKGRFTISRDNAKNTVYLQMHSLKPEDTAVYYCAAERYVLTWLGIERYYWGQGTQVTVSS | high polyreactivity
QVQRVESGGGLVQAGGSLRLSCAASGKIFGQYAMGRYRQAPGKEREFVAAITWSGGSTYYADSVKGRFTISRDNAKNTVYLQMNSLKPEDTAVYYCAADYGKTHRYDYDYWGQGTQVTVSS | low polyreactivity
QVQRVESGGGLVQAGGSLRLSCAASGLTFEYNAMGWYRQAPGKEREFVATISNGGITSYADSVKGRFTISRDNAKNTVYLQMNSLKPEDTGVYYCAASYADSPTTDQLWLEYDSWGQGTQVTVSS | low polyreactivity
QVQRVESGGGLVQAGGSLRLSCAASGLTFRYYAVGWYRQAPGKERELVAAITSNGGRTYYADSVKGRFTISRDNAKNTVYLQMNSLKPEDTAVYYCAAVYLYYGGVDYWGQGTQVTVSS | high polyreactivity
QVQRVESGGGLVQAGGSLRLSCAASGLTFVYYAMGWYRQAPGKERELVAAISESGTSTYYADSVKGRFTISRDNAKNTVYLQMNSLKPEDTAVYYCAAKDSYYEMDYWGQGTQVTVSS | high polyreactivity
QVQRVESGGGLVQAGGSLRLSCAASGRIFQIYAMGWYRQAPGKERELVAAIRSGSNTNYADSVKGRFTISRDNAKNTVYLQMNSLKPEDTAVYYCNALYTSLRKDNYWGQGTQVTVST | low polyreactivity
